Results on 57 variants are retold here after the RNAGym collection of RNA variant scans (doi:10.7554/elife.80360).

B1: Hammerhead Ribozyme (parent)
chain: ACCGGAUGUGCUUUCCGGUCUGAUGAGUCCGUGAGGACGAAACAG

In the series the parent is B1. The experiment in a line: self-cleavage, relative activity (ratio to wild type); higher = more cleavage; co-transcriptional.
On to ACCGGAUGUGUUUUUCGGUCUGAUGAGUCCGUGAGGACGAAACAG [C11U C15U], for which the self-cleavage was 1.18.

With ACCGGAUGUGUUUUACGGUCUGAUGAGUCCGUGAGGACGAAACAG [C11U C15A], the self-cleavage turned out to be 1.02.

Turning to ACCGGAUGUGUUUUGCGGUCUGAUGAGUCCGUGAGGACGAAACAG [C11U C15G], the self-cleavage was 1.04.

As for ACCGGAUGUGUAUUCCGGUCUGAUGAGUCCGUGAGGACGAAACAG [C11U U12A], the self-cleavage was 1.3.

ACCGGAUGUGUUUUCCGGUCUGAUGAGUACGUGAGGACGAAACAG [C11U C29A]: the self-cleavage was determined as 0.329.

Turning to ACCGGAUGUGUUUUCCGGUCUGAUGAGUUCGUGAGGACGAAACAG [C11U C29U], the self-cleavage worked out at 0.897.

Take ACCGGAUGUGUUUUCCGGUCUGAUGAGUGCGUGAGGACGAAACAG [C11U C29G]: the self-cleavage turned out to be 0.646.

Regarding ACCGGAUGUGUUUUCCGGUCUGAUGAUUCCGUGAGGACGAAACAG [C11U G27U], the self-cleavage was found to be 0.487.

On to ACCGGAUGUGUUUUCCGGUCUGAUGAAUCCGUGAGGACGAAACAG [C11U G27A], for which the self-cleavage worked out at 0.666.

Take ACCGGAUGUGUUUUCCGGUCUGAUGACUCCGUGAGGACGAAACAG [C11U G27C]: the self-cleavage stood at 0.58.

On to ACCGGAUGUGUUUUCCGGUUUGAUGAGUCCGUGAGGACGAAACAG [C11U C20U], for which the self-cleavage was 0.544.

Consider ACCGGAUGUGUUUUCCGGUAUGAUGAGUCCGUGAGGACGAAACAG [C11U C20A], for which the self-cleavage came out at 0.441.

Turning to ACCGGAUGUGUUUUCCGGUGUGAUGAGUCCGUGAGGACGAAACAG [C11U C20G], the self-cleavage turned out to be 0.327.

On to ACCGGAUGUGUUUUCCGGUCUGAUGAGUCCAUGAGGACGAAACAG [C11U G31A], for which the self-cleavage was 1.13.

In the case of ACCGGAUGUGUUUUCCGGUCUGAUGAGUCCUUGAGGACGAAACAG [C11U G31U], the self-cleavage was 1.35.

Regarding ACCGGAUGUGUUUUCCGGUCUGAUGAGUCCCUGAGGACGAAACAG [C11U G31C], the self-cleavage is 0.937.

With ACCGGAUGUGUUUUCUGGUCUGAUGAGUCCGUGAGGACGAAACAG [C11U C16U], the self-cleavage is 0.817.

In the case of ACCGGAUGUGUUUUCAGGUCUGAUGAGUCCGUGAGGACGAAACAG [C11U C16A], the self-cleavage amounted to 0.886.

As for ACCGGAUGUGUUUUCGGGUCUGAUGAGUCCGUGAGGACGAAACAG [C11U C16G], the self-cleavage was determined as 0.684.

For the variant ACCGGAUGUGUUUUCCGGUCUGAUGAGUCCGUGAGGACGAAACAA [C11U G45A], the self-cleavage turned out to be 0.515.

Turning to ACCGGAUGUGUUUUCCGGUCUGAUGAGUCCGUGAGGACGAAACAC [C11U G45C], the self-cleavage came out at 0.44.

Turning to ACCGGAUGUGUUUUCCGGUCUGAUGAGUCCGUGAGGACGAAACAU [C11U G45U], the self-cleavage came to 0.497.

In the case of ACCGGAUGUGUUUUCCGGUCUGAUGAGUCCGUGAGGACGAAACGG [C11U A44G], the self-cleavage is 1.35.

With ACCGGAUGUGUUUUCCGGUCUGAUGAGUCCGUGAGGACGAAACUG [C11U A44U], the self-cleavage was found to be 0.497.

As to ACCGGAUGUGUUUUCCGGUCUGAUGAGUCCGUGAUGACGAAACAG [C11U G35U], the self-cleavage turned out to be 0.846.

For the variant ACCGGAUGUGUUUUCCGGUCUGAUGAGUCCGUGACGACGAAACAG [C11U G35C], the self-cleavage was 0.588.

Turning to ACCGGAUGUGUUUUCCGGUCUGAUGAGUCCGUGAAGACGAAACAG [C11U G35A], the self-cleavage was found to be 0.64.

Take ACCGGAUGUGUUUUCCGGUCUGAUGAGUCCGUGAGGACCAAACAG [C11U G39C]: the self-cleavage is 0.389.

In the case of ACCGGAUGUGUUUUCCGGUCUGAUGAGUCCGUGAGGACUAAACAG [C11U G39U], the self-cleavage was 0.3.

Consider ACCGGAUGUGUUUUCCGGUCUGAUGAGUCCGUGAGGACAAAACAG [C11U G39A], for which the self-cleavage is 0.383.

ACCGGAUGUGUUUUCCGAUCUGAUGAGUCCGUGAGGACGAAACAG [C11U G18A]: the self-cleavage is 0.428.

Regarding ACCGGAUGUGUUUUCCGUUCUGAUGAGUCCGUGAGGACGAAACAG [C11U G18U], the self-cleavage is 0.469.

With ACCGGAUGUGUUUUCCGCUCUGAUGAGUCCGUGAGGACGAAACAG [C11U G18C], the self-cleavage was found to be 0.319.

On to ACCGGAUGUGUUUUCCGGUCUCAUGAGUCCGUGAGGACGAAACAG [C11U G22C], for which the self-cleavage is 0.339.

For ACCGGAUGUGUUUUCCGGUCUAAUGAGUCCGUGAGGACGAAACAG [C11U G22A], the self-cleavage was found to be 0.382.

Take ACCGGAUGUGUUUUCCGGUCUUAUGAGUCCGUGAGGACGAAACAG [C11U G22U]: the self-cleavage was 0.341.

Turning to ACCGGAUGUGUUUUCCGGUCUGAUGAGUCAGUGAGGACGAAACAG [C11U C30A], the self-cleavage came out at 0.765.

Turning to ACCGGAUGUGUUUUCCGGUCUGAUGAGUCGGUGAGGACGAAACAG [C11U C30G], the self-cleavage turned out to be 0.714.

ACCGGAUGUGUUUUCCGGUCUGAUGAGUCUGUGAGGACGAAACAG [C11U C30U]: the self-cleavage turned out to be 0.736.

On to ACCGGAUGUGUUUUCCUGUCUGAUGAGUCCGUGAGGACGAAACAG [C11U G17U], for which the self-cleavage turned out to be 0.405.

Turning to ACCGGAUGUGUUUUCCCGUCUGAUGAGUCCGUGAGGACGAAACAG [C11U G17C], the self-cleavage turned out to be 0.43.

For ACCGGAUGUGUUUUCCAGUCUGAUGAGUCCGUGAGGACGAAACAG [C11U G17A], the self-cleavage came out at 0.475.

Consider ACCGGAUGUGUUUUCCGGUCUGAUGAGUCCGUGAGAACGAAACAG [C11U G36A], for which the self-cleavage was determined as 0.607.

Take ACCGGAUGUGUUUUCCGGUCUGAUGAGUCCGUGAGUACGAAACAG [C11U G36U]: the self-cleavage was determined as 0.669.

On to ACCGGAUGUGUUUUCCGGUCUGAUGAGUCCGUGAGCACGAAACAG [C11U G36C], for which the self-cleavage came out at 0.499.

Take ACCGGAUGUGUUUUCCGGUCUGAUGAGUCCGUGAGGACGAAAUAG [C11U C43U]: the self-cleavage was found to be 0.529.

For the variant ACCGGAUGUGUUUUCCGGUCUGAUGAGUCCGUGAGGACGAAAGAG [C11U C43G], the self-cleavage was 0.392.

As to ACCGGAUGUGUUUUCCGGUCUGAUGAGUCCGUGAGGACGAAAAAG [C11U C43A], the self-cleavage was determined as 0.36.

In the case of ACCGGAUGUGUUUUCCGGUCUGAUGAGUCCGUGAGGAUGAAACAG [C11U C38U], the self-cleavage is 1.02.

Consider ACCGGAUGUGUUUUCCGGUCUGAUGAGUCCGUGAGGAAGAAACAG [C11U C38A], for which the self-cleavage worked out at 0.511.

In the case of ACCGGAUGUGUUUUCCGGUCUGAUGAGUCCGUGAGGAGGAAACAG [C11U C38G], the self-cleavage was found to be 0.611.

As for ACCGGAUGUGUUUUCCGGUCUGAUCAGUCCGUGAGGACGAAACAG [C11U G25C], the self-cleavage was determined as 0.248.

Regarding ACCGGAUGUGUUUUCCGGUCUGAUUAGUCCGUGAGGACGAAACAG [C11U G25U], the self-cleavage is 0.318.

On to ACCGGAUGUGUUUUCCGGUCUGAUAAGUCCGUGAGGACGAAACAG [C11U G25A], for which the self-cleavage is 0.39.

Turning to ACCGGAUGUGUUUUCCGGUCUGAUGAGUCCGUCAGGACGAAACAG [C11U G33C], the self-cleavage turned out to be 0.659.

ACCGGAUGUGUUUUCCGGUCUGAUGAGUCCGUUAGGACGAAACAG [C11U G33U]: the self-cleavage turned out to be 1.04.

In the case of ACCGGAUGUGUUUUCCGGUCUGAUGAGUCCGUAAGGACGAAACAG [C11U G33A], the self-cleavage was 0.95.
